Several values for one entry are separate records, joined by “and”; a condition that tells them apart may be missing. Equal entries are not always repeated.
B1: TRAF2 TRAF-N coiled-coil domain (amino acids 264-329) (domain or fragment, human, UniProt Q12933 264-329, looked up)
chain: AGSELLQRCESLEKKTATFENIVCVLNREVERVAMTAEACSRQHRLDQDKIEALSSKVQQLERSIG
notes: TNF receptor-associated factor 2 (TRAF2), human, TRAF-N coiled-coil domain, amino acids 264-329; Trimer by SEC; dimer and possible trimer by AUC. 'Human' is said of the TRAF2 TRAF domain in the same methods paragraph, not of this construct itself; also called TRAF2 TRAF-N CC; TRAF2 CC
B2: TRAIP coiled-coil domain (TRAIP CC, residues 72-167) (domain or fragment, human, UniProt Q9BWF2 72-167, looked up)
chain: NVLDAEFLKNELDNVRAQLSQKDKEKRDSQVIIDTLRDTLEERNATVVSLQQALGKAEMLCSTLKKQMKYLEQQQDETKQAQEEARRLRSKMKTME
notes: Trimer by SEC and MALS at high concentration, dimer by AUC at low concentration; calculated monomer mass with the tag 12,425 Da; not shown: His6, C-terminal, kept
B3: TRAIP RING domain plus coiled-coil domain (TRAIP RING-CC, residues 1-157) (domain or fragment, human, UniProt Q9BWF2 1-157, looked up)
chain: MPIRALCTICSDFFDHSRDVAAIHCGHTFHLQCLIQWFETAPSRTCPQCRIQVGKRTIINKLFFDLAQEEENVLDAEFLKNELDNVRAQLSQKDKEKRDSQVIIDTLRDTLEERNATVVSLQQALGKAEMLCSTLKKQMKYLEQQQDETKQAQEEAR
notes: Exists in different forms and higher-order oligomers; calculated monomer mass with the tag 18,893 Da; not shown: His6, C-terminal, kept
B4: TRAF1 TRAF-N coiled-coil domain (amino acids 181-244) (domain or fragment, UniProt Q13077 181-244, looked up)
chain: FMKEKLLAELEGKLRVFENIVAVLNKEVEASHLALATSIHQSQLDRERILSLEQRVVELQQTLA
notes: TNF receptor-associated factor 1 (TRAF1), TRAF-N coiled-coil domain, amino acids 181-244; also called TRAF1 TRAF-N CC

Tests used:
[1] = target: TRAF4 TRAF domain (TRAF-N and TRAF-C) (human); assay: SEC; single purified protein on Superdex 200 10/30, 20 mM Tris-HCl pH 8.0, 150 mM NaCl
[2] = target: TRAF2 TRAF domain (TRAF-N and TRAF-C) (human); assay: as above
[3] = target: the molecule itself; assay: AUC; sedimentation velocity, 20 °C, 2 mg/mL, 20 mM Tris-HCl pH 8.0, 150 mM NaCl, 45,000 rpm, 280 nm, SEDFIT c(s); the paper calls the TRAIP CC concentration low
[4] = target: B3; assay: native gel or EMSA; Native PAGE shift assay of mixtures of two purified proteins, Phast System, 8-25% gradient gel, Coomassie; details: both partners purified
[5] = target: the molecule itself; assay: SEC + SEC-MALS; TRAIP CC alone, high concentration; Superdex 200 10/30; MALS on mini-DAWN treos
[6] = target: the molecule itself; assay: SEC; single purified protein on Superdex 200 10/30, 20 mM Tris-HCl pH 8.0, 150 mM NaCl

TRAF4 TRAF domain (TRAF-N and TRAF-C) (domain or fragment)
stoichiometry N [1]: 3

TRAF2 TRAF domain (TRAF-N and TRAF-C) (domain or fragment)
stoichiometry N [2]: 3

B1
stoichiometry N [3]: 2 and 3
binding result [4]: binds

B2
stoichiometry N [3]: 2
stoichiometry N [5]: 3

B3
binding result [6]: binds

B4
stoichiometry N [6]: 3
